Blank lines part the entries; values can stand above or below the binder they belong to.
What was measured:
[1] = target: T1, GST-KIAA0807(S) PDZ domain 1 (Homo sapiens (Human)), Q6P0Q8; test: G assay titration, PDZ 0.5 ug/ml
T1 chain: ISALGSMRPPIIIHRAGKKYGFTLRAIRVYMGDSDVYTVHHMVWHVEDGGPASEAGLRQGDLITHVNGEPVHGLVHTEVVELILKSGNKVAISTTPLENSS

[2] = target: GST-KIAA0316 PDZ domain 1 (Homo sapiens (Human)), Q14CM0; test: G' assay; settings: remark: other sources report otherwise; also: key of the grades not given here
[3] = target: T2, GST-Shank 1 PDZ domain 1 (Homo sapiens (Human)), Q9UPX8; test: G' assay; also: key of the grades not given here
T2 chain: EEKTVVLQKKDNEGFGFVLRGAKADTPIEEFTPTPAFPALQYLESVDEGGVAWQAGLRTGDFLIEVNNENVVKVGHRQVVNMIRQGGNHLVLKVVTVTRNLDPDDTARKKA

[4] = target: T3, GST-PDZK1 PDZ domains 2, 3, 4, Q5T2W1; test: G' assay; also: key of the grades not given here
T3 chain: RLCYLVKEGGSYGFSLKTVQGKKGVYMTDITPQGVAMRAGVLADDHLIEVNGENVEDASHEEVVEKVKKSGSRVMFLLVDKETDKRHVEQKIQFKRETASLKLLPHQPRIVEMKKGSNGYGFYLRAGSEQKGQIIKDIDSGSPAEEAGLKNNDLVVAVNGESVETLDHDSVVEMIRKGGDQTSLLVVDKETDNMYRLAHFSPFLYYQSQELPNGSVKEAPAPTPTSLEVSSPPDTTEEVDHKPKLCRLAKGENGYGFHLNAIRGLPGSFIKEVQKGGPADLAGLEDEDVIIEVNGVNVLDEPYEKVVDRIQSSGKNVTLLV

[5] = target: GST-KIAA807 [GST: P08515]; test: G' assay; also: key of the grades not given here
[6] = target: T4, GST-FLJ00011 PDZ domain 1 (Homo sapiens (Human)), Q9H5P4; test: G' assay; also: key of the grades not given here
T4 chain: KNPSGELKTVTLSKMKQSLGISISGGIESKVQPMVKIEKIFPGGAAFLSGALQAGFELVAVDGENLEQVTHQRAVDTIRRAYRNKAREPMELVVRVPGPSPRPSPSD

[7] = target: T1, GST-KIAA0807(S) PDZ domain 1 (Homo …); test: G' assay; also: key of the grades not given here
[8] = target: T5, GST-APXL-1 PDZ domain 1 (Homo sapiens (Human)), Q13796; test: G' assay; also: key of the grades not given here
T5 chain: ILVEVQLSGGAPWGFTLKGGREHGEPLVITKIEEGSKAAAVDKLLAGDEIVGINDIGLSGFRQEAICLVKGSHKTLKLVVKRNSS

[9] = target: T6, GST-Shank 3 PDZ domain 1 (human (hypothetical, computer cloned)), Q9BYB0; test: G' assay; also: key of the grades not given here
T6 chain: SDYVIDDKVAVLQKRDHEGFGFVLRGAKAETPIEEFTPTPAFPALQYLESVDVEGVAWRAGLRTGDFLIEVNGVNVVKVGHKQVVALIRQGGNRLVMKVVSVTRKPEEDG

[10] = target: T7, GST-KIAA0382 PDZ domain 1 (Canis lupus familiaris (Dog) (Canis familiaris)), A0A8I3; test: G' assay; also: key of the grades not given here
T7 chain: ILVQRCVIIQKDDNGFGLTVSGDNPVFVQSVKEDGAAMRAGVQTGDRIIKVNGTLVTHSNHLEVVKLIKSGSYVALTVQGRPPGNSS

[11] = target: GST-Atrophin-1 Interacting Protein PDZ domain 5 (Rattus norvegicus (Rat)), O88382; test: G' assay; also: key of the grades not given here
[12] = target: T8, GST-Outer Membrane PDZ domain 1 (Homo sapiens (Human)), P57105; test: G' assay; also: key of the grades not given here
T8 chain: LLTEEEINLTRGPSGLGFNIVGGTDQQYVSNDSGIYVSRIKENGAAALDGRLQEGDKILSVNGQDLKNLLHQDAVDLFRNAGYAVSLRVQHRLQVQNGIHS

[13] = target: GST-PIST PDZ domain 1 (Mus musculus (Mouse)), Q8BH60; test: G' assay; also: key of the grades not given here
[14] = target: T9, GST-KIAA0303 PDZ domain 1 (Homo sapiens (Human)), O15021; test: G' assay; also: key of the grades not given here
T9 chain: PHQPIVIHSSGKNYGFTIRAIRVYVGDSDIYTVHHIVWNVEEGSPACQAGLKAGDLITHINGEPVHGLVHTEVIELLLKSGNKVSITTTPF

[15] = target: GST-PSD95 PDZ domains 1, 2, 3 (Homo sapiens), P78352; test: G' assay; also: key of the grades not given here
[16] = target: GST-BAI-1 Associated Protein PDZ domain 4 (Homo sapiens (Human)), Q96QZ7; test: G' assay; also: key of the grades not given here
[17] = target: GST-BAI-1 Associated Protein PDZ domain 2 (Mus musculus (Mouse)), Q6RHR9; test: G' assay; also: key of the grades not given here
[18] = target: T10, GST-TIP1 PDZ domain 1 (Table 9 insert) (Homo sapiens (Human)), O14907; test: G' assay; also: key of the grades not given here
T10 chain: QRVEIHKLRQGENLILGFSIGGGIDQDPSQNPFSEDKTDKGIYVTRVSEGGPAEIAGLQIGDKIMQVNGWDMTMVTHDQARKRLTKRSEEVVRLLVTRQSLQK

[19] = target: T11, GST-ZO-2 PDZ domain 2 (Homo sapiens (Human)), Q9UDY2; test: G' assay; also: key of the grades not given here
T11 chain: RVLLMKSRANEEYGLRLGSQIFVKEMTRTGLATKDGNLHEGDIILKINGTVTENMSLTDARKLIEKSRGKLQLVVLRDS

[20] = target: T12, GST-KIAA1526 PDZ domain 1 (Homo sapiens (Human)), Q9P202; test: G' assay; also: key of the grades not given here
T12 chain: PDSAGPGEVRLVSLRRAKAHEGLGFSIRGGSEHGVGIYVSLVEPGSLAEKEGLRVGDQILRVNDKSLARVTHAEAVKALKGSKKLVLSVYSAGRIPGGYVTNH

[21] = target: T13, GST-ZO-1 PDZ domain 2 (Rattus norvegicus (Rat)), A0A0G2; test: G' assay; also: key of the grades not given here
T13 chain: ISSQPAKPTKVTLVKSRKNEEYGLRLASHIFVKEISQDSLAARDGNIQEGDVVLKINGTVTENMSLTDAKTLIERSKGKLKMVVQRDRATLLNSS

[22] = target: T14, GST-ZO-1 PDZ domain 1 (Rattus norvegicus (Rat)), A0A0G2; test: G' assay; also: key of the grades not given here
T14 chain: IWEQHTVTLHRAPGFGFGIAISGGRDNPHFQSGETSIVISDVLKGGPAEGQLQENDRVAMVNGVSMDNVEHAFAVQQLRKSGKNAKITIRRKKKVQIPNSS

Chain of GST-KIAA807 [GST: P08515] (P08515 whole entry, the tested form may be a part): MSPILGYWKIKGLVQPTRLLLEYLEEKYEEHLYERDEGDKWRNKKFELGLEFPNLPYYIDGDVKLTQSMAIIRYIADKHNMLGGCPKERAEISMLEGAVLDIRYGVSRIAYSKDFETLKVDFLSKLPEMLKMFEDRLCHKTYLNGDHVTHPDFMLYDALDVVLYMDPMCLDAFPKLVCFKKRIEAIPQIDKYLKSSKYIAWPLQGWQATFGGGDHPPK
Chain of GST-BAI-1 Associated Protein PDZ domain 2 (Mus musculus (Mouse)), Q6RHR9 (Q6RHR9 455-558): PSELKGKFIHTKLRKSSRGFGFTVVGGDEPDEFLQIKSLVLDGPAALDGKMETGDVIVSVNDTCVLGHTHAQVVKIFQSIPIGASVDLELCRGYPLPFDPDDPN
Chain of GST-Atrophin-1 Interacting Protein PDZ domain 5 (Rattus norvegicus (Rat)), O88382 (O88382 1128-1225): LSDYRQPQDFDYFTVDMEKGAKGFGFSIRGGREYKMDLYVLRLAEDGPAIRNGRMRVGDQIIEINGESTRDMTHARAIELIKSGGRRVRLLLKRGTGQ
Chain of GST-PSD95 PDZ domains 1, 2, 3 (Homo sapiens), P78352 (P78352 62-395): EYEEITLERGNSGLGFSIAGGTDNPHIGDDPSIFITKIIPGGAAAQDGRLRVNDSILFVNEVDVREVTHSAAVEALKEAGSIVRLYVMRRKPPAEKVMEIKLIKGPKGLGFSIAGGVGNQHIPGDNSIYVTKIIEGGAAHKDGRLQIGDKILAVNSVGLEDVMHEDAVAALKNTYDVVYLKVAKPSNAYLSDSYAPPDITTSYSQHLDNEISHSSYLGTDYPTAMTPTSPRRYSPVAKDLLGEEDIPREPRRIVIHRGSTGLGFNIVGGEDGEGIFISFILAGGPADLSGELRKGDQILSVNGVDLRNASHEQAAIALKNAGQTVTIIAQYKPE
Chain of GST-KIAA0316 PDZ domain 1 (Homo sapiens (Human)), Q14CM0 (Q14CM0 72-159): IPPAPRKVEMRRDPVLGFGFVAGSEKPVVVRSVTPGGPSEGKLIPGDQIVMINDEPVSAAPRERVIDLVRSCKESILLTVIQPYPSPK
Chain of GST-BAI-1 Associated Protein PDZ domain 4 (Homo sapiens (Human)), Q96QZ7 (Q96QZ7 other isoform, or with tags, fused parts or gaps): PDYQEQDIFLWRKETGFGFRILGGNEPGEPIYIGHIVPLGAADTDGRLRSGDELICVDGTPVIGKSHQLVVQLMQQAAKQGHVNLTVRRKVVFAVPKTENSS

- Kd [1]: 350 nM
- Classification [2]: 1 A450 class
- Classification [3]: 4 A450 class
- Classification [4]: 1 A450 class
- Classification [5]: 5 A450 class
- Classification [6]: 3 A450 class
- Classification [7]: 5 A450 class
- Classification [8]: 2 A450 class
- Classification [9]: 2 A450 class
- Classification [10]: 1 A450 class
- Classification [11]: 1 A450 class
- Classification [12]: 2 A450 class
- Classification [13]: 1 A450 class
B1: PAG (peptide)
peptide: KENDYESISDLQQGRDITRL
modifications: not checked

- Classification [14]: 4 A450 class
- Classification [5]: 4 A450 class
- Classification [15]: 5 A450 class
- Classification [16]: 5 A450 class
- Classification [17]: 4 A450 class
- Classification [18]: 5 A450 class
B2: alpha-2B Adrenergic receptor (peptide)
peptide: QDFRRAFRRILARPWTQTAW
modifications: not checked

- Classification [19]: 1 A450 class
- Classification [20]: 1 A450 class
- Classification [21]: 1 A450 class
- Classification [22]: 1 A450 class
B3: neurofascin (chicken) (peptide)
peptide: TEGNESSEATSPVNAIYSLA
modifications: not checked

Reference: patent US20050282743A1, “Molecular interactions in cells” (Arbor Vita Corporation, priority 2001, published 2005)
